According to the Human Domainome abundance scans (Beltran et al. 2025):
± gives the uncertainty stated by the source.

B1: Tripartite motif-containing protein 49C, residues 87 to 133; numbered along this chain, P0CI26 (parent)
chain: SSEEQMCGTHRETKKIFCEVDRSLLCLLCSSSQEHRYHRHRPIEWAA

Variants of: B1
Test: abundance fitness (aPCA) (normalised: wild type 0, dead -1); higher = more abundant; growth selection in yeast, the domain comes from the species named
Details: Homo sapiens

Variant	abundance fitness
SSEEQMCGTHRETKKIFCEVDRSLLCLLCSSSQEHAYHRHRPIEWAA [R36A]	0.037 ± 0.088
SSEEQMCGTHRETKKIFCEVDRSLLCLLCSSSQEHDYHRHRPIEWAA [R36D]	0.001 ± 0.14
SSEEQMCGTHRETKKIFCEVDRSLLCLLCSSSQEHTYHRHRPIEWAA [R36T]	0.001 ± 0.11
SSEEQMCGTHRETKKIFCEVDRSLLCLLCSSSQEHVYHRHRPIEWAA [R36V]	-0.213 ± 0.084
SSEEQMCGTHRETKKIFCEVDRSLLCLLCSSSQEHYYHRHRPIEWAA [R36Y]	-0.701 ± 0.18
SSEEQMCGTHRETKKIFCEVDRSLLCLLCSSSQEHEYHRHRPIEWAA [R36E]	-0.308 ± 0.11
SSEEQMCGTHRETKKIFCEVDRSLLCLLCSSSQEHLYHRHRPIEWAA [R36L]	-0.152 ± 0.087
SSEEQMCGTHRETKKIFCEVDRSLLCLLCSSSQEHIYHRHRPIEWAA [R36I]	-0.217 ± 0.14
SSEEQMCGTHRETKKIFCEVDRSLLCLLCSSSQEHWYHRHRPIEWAA [R36W]	-0.66 ± 0.11
SSEEQMCGTHRETKKIFCEVDRSLLCLLCSSSQEHKYHRHRPIEWAA [R36K]	-0.15 ± 0.15
SSEEQMCGTHRETKKIFCEVDRSLLCLLCSSSQEHNYHRHRPIEWAA [R36N]	-0.028 ± 0.11
SSEEQMCGTHRETKKIFCEVDRSLLCLLCSSSQEHSYHRHRPIEWAA [R36S]	-0.197 ± 0.091
SSEEQMCGTHRETKKIFCEVDRSLLCLLCSSSQEHPYHRHRPIEWAA [R36P]	-0.535 ± 0.16
SSEEQMCGTHRETKKIFCEVDRSLLCLLCSSSQEHMYHRHRPIEWAA [R36M]	-0.301 ± 0.12
SSEEQMCGTHRETKKIFCEVDRSLLCLLCSSSQEHFYHRHRPIEWAA [R36F]	-0.607 ± 0.14
SSEEQMCGTHRETKKIFCEVDRSLLCLLCSSSQEHHYHRHRPIEWAA [R36H]	0.064 ± 0.15
SSEEQMCGTHRETKKIFCEVDRSLLCLLCSSSQEHQYHRHRPIEWAA [R36Q]	-0.199 ± 0.12
SSEEQMCGTHRETKKIFCEVDRSLLCLLCSSSQEHGYHRHRPIEWAA [R36G]	-0.454 ± 0.074
SSEEQMCGTHRETKKIFCEVDRSLLCLLCSSSQEHRYARHRPIEWAA [H38A]	-0.573 ± 0.085
SSEEQMCGTHRETKKIFCEVDRSLLCLLCSSSQEHRYIRHRPIEWAA [H38I]	-0.892 ± 0.26
SSEEQMCGTHRETKKIFCEVDRSLLCLLCSSSQEHRYERHRPIEWAA [H38E]	-0.33 ± 0.092
SSEEQMCGTHRETKKIFCEVDRSLLCLLCSSSQEHRYFRHRPIEWAA [H38F]	-0.271 ± 0.2
SSEEQMCGTHRETKKIFCEVDRSLLCLLCSSSQEHRYGRHRPIEWAA [H38G]	-0.84 ± 0.09
SSEEQMCGTHRETKKIFCEVDRSLLCLLCSSSQEHRYCRHRPIEWAA [H38C]	-0.836 ± 0.24
SSEEQMCGTHRETKKIFCEVDRSLLCLLCSSSQEHRYDRHRPIEWAA [H38D]	-0.521 ± 0.14
SSEEQMCGTHRETKKIFCEVDRSLLCLLCSSSGEHRYHRHRPIEWAA [Q33G]	-0.151 ± 0.082
SSEEQMCGTHRETKKIFCEVDRSLLCLLCSSSLEHRYHRHRPIEWAA [Q33L]	-0.012 ± 0.094
SSEEQMCGTHRETKKIFCEVDRSLLCLLCSSSWEHRYHRHRPIEWAA [Q33W]	-0.352 ± 0.096

Variant	abundance fitness
SSEEQMCGTHRETKKIFCEVDRSLLCLLCSSSDEHRYHRHRPIEWAA [Q33D]	-0.264 ± 0.23
SSEEQMCGTHRETKKIFCEVDRSLLCLLCSSSTEHRYHRHRPIEWAA [Q33T]	-0.116 ± 0.11
SSEEQMCGTHRETKKIFCEVDRSLLCLLCSSSHEHRYHRHRPIEWAA [Q33H]	-0.197 ± 0.19
SSEEQMCGTHRETKKIFCEVDRSLLCLLCSSSFEHRYHRHRPIEWAA [Q33F]	-0.237 ± 0.16
SSEEQMCGTHRETKKIFCEVDRSLLCLLCSSSMEHRYHRHRPIEWAA [Q33M]	-0.257 ± 0.13
SSEEQMCGTHRETKKIFCEVDRSLLCLLCSSSEEHRYHRHRPIEWAA [Q33E]	0.081 ± 0.12
SSEEQMCGTHRETKKIFCEVDRSLLCLLCSSSYEHRYHRHRPIEWAA [Q33Y]	0.159 ± 0.14
SSEEQMCGTHRETKKIFCEVDRSLLCLLCSSSVEHRYHRHRPIEWAA [Q33V]	0.01 ± 0.11
SSEEQMCGTHRETKKIFCEVDRSLLCLLCSSSPEHRYHRHRPIEWAA [Q33P]	0.391 ± 0.13
SSEEQMCGTHRETKKIFCEVDRSLLCLLCSSSIEHRYHRHRPIEWAA [Q33I]	0.694 ± 0.3
SSEEQMCGTHRETKKIFCEVDRSLLCLLCSSSQEHRAHRHRPIEWAA [Y37A]	0.181 ± 0.087
SSEEQMCGTHRETKKIFCEVDRSLLCLLCSSSQEHRNHRHRPIEWAA [Y37N]	0.226 ± 0.083
SSEEQMCGTHRETKKIFCEVDRSLLCLLCSSSQEHRVHRHRPIEWAA [Y37V]	-0.243 ± 0.091
SSEEQMCGTHRETKKIFCEVDRSLLCLLCSSSQEHRLHRHRPIEWAA [Y37L]	0.127 ± 0.07
SSEEQMCGTHRETKKIFCEVDRSLLCLLCSSSQEHRRHRHRPIEWAA [Y37R]	-0.109 ± 0.075
SSEEQMCGTHRETKKIFCEVDRSLLCLLCSSSQEHRCHRHRPIEWAA [Y37C]	-0.032 ± 0.09
SSEEQMCGTHRETKKIFCEVDRSLLCLLCSSSQEHRKHRHRPIEWAA [Y37K]	0.058 ± 0.1
SSEEQMCGTHRETKKIFCEVDRSLLCLLCSSSQEHRHHRHRPIEWAA [Y37H]	0.181 ± 0.08
SSEEQMCGTHRETKKIFCEVDRSLLCLLCSSSQEHRIHRHRPIEWAA [Y37I]	-0.386 ± 0.1
SSEEQMCGTHRETKKIFCEVDRSLLCLLCSSSQEHRQHRHRPIEWAA [Y37Q]	0.155 ± 0.088
SSEEQMCGTHRETKKIFCEVDRSLLCLLCSSSQEHREHRHRPIEWAA [Y37E]	0.178 ± 0.15
SSEEQMCGTHRETKKIFCEVDRSLLCLLCSSSQEHRWHRHRPIEWAA [Y37W]	-0.218 ± 0.12
SSEEQMCGTHRETKKIFCEVDRSLLCLLCSSSQEHRDHRHRPIEWAA [Y37D]	0.176 ± 0.11
SSEEQMCGTHRETKKIFCEVDRSLLCLLCSSSQEHRPHRHRPIEWAA [Y37P]	-0.273 ± 0.076
SSEEQMCGTHRETKKIFCEVDRSLLCLLCSSSQEHRSHRHRPIEWAA [Y37S]	0.171 ± 0.071
SSEEQMCGTHRETKKIFCEVDRSLLCLLCSSSQEHRTHRHRPIEWAA [Y37T]	0.051 ± 0.074
SSEEQMCGTHRETKKIFCEVDRSLLCLLCSSSQEHRFHRHRPIEWAA [Y37F]	-0.059 ± 0.074
